In patent US20190040368:

System: recombinant human iduronate-2 sulfatase (rhIDS)
Sequence (chain, as listed by the source): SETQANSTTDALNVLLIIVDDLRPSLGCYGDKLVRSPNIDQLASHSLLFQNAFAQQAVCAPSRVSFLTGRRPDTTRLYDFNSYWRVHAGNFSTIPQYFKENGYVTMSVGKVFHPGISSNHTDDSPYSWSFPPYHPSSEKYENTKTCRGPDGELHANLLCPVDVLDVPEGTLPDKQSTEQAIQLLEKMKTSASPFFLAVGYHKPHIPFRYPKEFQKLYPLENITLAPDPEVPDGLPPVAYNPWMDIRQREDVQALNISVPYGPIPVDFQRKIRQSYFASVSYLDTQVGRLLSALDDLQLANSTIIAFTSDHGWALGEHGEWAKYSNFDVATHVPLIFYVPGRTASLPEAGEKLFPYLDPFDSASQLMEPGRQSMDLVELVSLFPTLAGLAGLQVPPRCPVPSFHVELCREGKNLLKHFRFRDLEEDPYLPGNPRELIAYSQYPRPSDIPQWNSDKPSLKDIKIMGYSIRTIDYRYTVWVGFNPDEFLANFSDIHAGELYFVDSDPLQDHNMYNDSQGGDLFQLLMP

Chain of Dendroctonus ponderosa Lip2-DpFGE-His6-HDEL fusion construct (chain, as listed by the source): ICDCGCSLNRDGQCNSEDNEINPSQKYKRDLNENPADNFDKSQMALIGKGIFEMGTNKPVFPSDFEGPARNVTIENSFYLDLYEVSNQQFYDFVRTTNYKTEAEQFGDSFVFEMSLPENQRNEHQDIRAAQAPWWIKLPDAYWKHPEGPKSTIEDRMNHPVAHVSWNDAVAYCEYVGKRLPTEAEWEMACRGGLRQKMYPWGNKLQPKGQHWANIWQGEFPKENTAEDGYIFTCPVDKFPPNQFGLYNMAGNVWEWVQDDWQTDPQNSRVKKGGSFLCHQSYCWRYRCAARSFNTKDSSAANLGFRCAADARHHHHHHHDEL

Dendroctonus ponderosa Lip2-DpFGE-His6-HDEL fusion construct
% activity of rhIDS; co-expression with DpFGE: 5%
